Experimental data as given in article PMC5698462, “Production of recombinant human procollagen type I C-terminal propeptide and establishment of a sandwich ELISA for quantification” (Scientific Reports, 2017).

B1: Procollagen type III C-terminal propeptide (PIIICP), homotrimer of PIIICPα1 (residues 1222–1466) with N-terminal 8× His tag (domain or fragment, human, UniProt P02461 1222-1466, looked up)
chain: DEPMDFKINTDEIMTSLKSVNGQIESLISPDGSRKNPARNCRDLKFCHPELKSGEYWVDPNQGCKLDAIKVFCNMETGETCISANPLNVPRKHWWTDSSAEKKHVWFGESMDGGFQFSYGNPELPEDVLDVHLAFLRLLSSRASQNITYHCKNSIAYMDQASGNVKKALKLMGSNEGEFKAEGNSKFTYTVLEDGCTKHTGEWSKTVFEYRTRKAVRLPIVDIAPYDIGGPDQEFGVDVGPVCFL
notes: C-terminal propeptide of the human type III procollagen α1 chain, residues 1222–1466; Mammalian secretion plasmid; also called 8× His-tagged PIIICPα1; recombinant PIIICP; source: HEK293F, transiently transfected, secreted; purified from culture supernatant (Ni-NTA); not shown: 8× His, N-terminal, kept
B2: Procollagen type I carboxy-terminal propeptide α1 chain (PICPα1), residues 1218–1464, with N-terminal 8× His tag (domain or fragment, human, UniProt P02452 1218-1464, looked up)
chain: ADDANVVRDRDLEVDTTLKSLSQQIENIRSPEGSRKNPARTCRDLKMCHSDWKSGEYWIDPNQGCNLDAIKVFCNMETGETCVYPTQPSVAQKNWYISKNPKDKRHVWFGESMTDGFQFEYGGQGSDPADVAIQLTFLRLMSTEASQNITYHCKNSVAYMDQQTGNLKKALLLQGSNEIEIRAEGNSRFTYSVTVDGCTSHTGAWGKTVIEYKTTKTSRLPIIDVAPLDVGAPDQEFGFDVGPVCFL
notes: C-terminal propeptide of the human type I procollagen α1 chain, residues 1218–1464 (residue numbers of type I procollagen); Cloned into pSecTag2A (AscI/ApaI) for secretion; Two copies of this chain stand with one PICPα2 chain in the disulfide-linked PICP heterotrimer; also called 8× His-tagged PICPα1; recombinant PICPα1 chain; source: HEK293F, transiently co-transfected with the PICPα2 plasmid at …
B3: Procollagen type I carboxy-terminal propeptide α2 chain (PICPα2), residues 1120–1366, with N-terminal c-myc tag (domain or fragment, human, UniProt P08123 1120-1366, looked up)
chain: DQPRSAPSLRPKDYEVDATLKSLNNQIETLLTPEGSRKNPARTCRDLRLSHPEWSSGYYWIDPNQGCTMDAIKVYCDFSTGETCIRAQPENIPAKNWYRSSKDKKHVWLGETINAGSQFEYNVEGVTSKEMATQLAFMRLLANYASQNITYHCKNSIAYMDEETGNLKKAVILQGSNDVELVAEGNSRFTYTVLVDGCSKKTNEWGKTIIEYKTNKPSRLPFLDIAPLDIGGADQEFFVDIGPVCFK
notes: C-terminal propeptide of the human type I procollagen α2 chain, residues 1120–1366 (residue numbers of type I procollagen); a restriction site was removed by a silent mutation; Cloned into pSecTag2A (AscI/ApaI) for secretion; also called c-myc-tagged PICPα2; source: HEK293F, transiently co-transfected with the PICPα1 plasmid (PICPα1:PICPα2 2:1 molar ratio), secreted; co-purified from culture …

Legend:
[1] = target: the molecule itself; assay: SEC; Superdex 200 10/300 GL; purified PICP (2 mg/mL) in TBS (500 mM NaCl, 2.7 mM KCl, 12 mM Tris, pH 7.4); purified PIIICP in PBS pH 7.4; apparent molecular weight against standard markers
[2] = target: B3; assay: non-reducing and reducing SDS-PAGE (stain, western blot) and SDS-CGE; purified proteins run under non-reducing and reducing conditions; band intensity (ImageJ) and peak area (Agilent 2100 bioanalyzer, Protein 230 kit) quantified; disulfide-linked trimers; conditions: both partners purified
[3] = target: B2; assay: pull-down; Ni-NTA purification through the 8× His tag on PICPα1 from culture supernatant of HEK293F cells co-transfected with PICPα1 and PICPα2 plasmids (2:1); western blot with anti-His and anti-c-myc antibodies, non-reducing and reducing SDS-PAGE; conditions: partners not purified

B1
stoichiometry N [1]: 3

B2
stoichiometry N [2]: 2 PICPα1 chains per PICPα2 chain

B3
binding result [3]: binds
